According to patent publication US20140120095A1 (Boehringer Ingelheim, published 2014):
Where two headings read alike, the source gives them in different places. Each block holds one binder with its values, some of them ahead of it.

Legend:
[1] = molecular target: human DLL4 overexpressed on cells (human, UniProt Q9NR61 27-685); test: cell-based or functional assay
[2] = molecular target: T1, recombinant human DLL4 (human, UniProt Q9NR61 25-522); test: cell-based or functional assay
[3] = molecular target: T1, recombinant human DLL4; test: binding ELISA, coated rhDLL4
Protocol: (§1) In order to determine cross-reactivity to mouse DII4 a binding ELISA is performed. […] Wells are blocked with a casein solution (1% in PBS). VHHs are applied as dilution series and binding is detected using a mouse anti-myc (Roche) and an anti-mouse-AP conjugate (Sigma, St Louis, Mo., USA) (FIG. 7 A-H). As reference, binding to human DII4 is measured.

[4] = molecular target: T2, recombinant mouse DLL4 (mouse, UniProt Q9JI71 27-532); test: binding ELISA, coated rmDLL4
T2 construct: extracellular domain; also called rmDLL4; mDLL4
Protocol: as §1

[5] = molecular target: T1, recombinant human DLL4; test: Biacore off-rate, periplasmic extract
[6] = molecular target: T3, cynomolgus DLL4 overexpressed on cells (cynomolgus, UniProt Q9NR61 27-685 (human entry)); test: FACS titration on HEK293-cDLL4 cells, MCF
T3 construct: also called cyno DII4; cDLL4
T3 chain: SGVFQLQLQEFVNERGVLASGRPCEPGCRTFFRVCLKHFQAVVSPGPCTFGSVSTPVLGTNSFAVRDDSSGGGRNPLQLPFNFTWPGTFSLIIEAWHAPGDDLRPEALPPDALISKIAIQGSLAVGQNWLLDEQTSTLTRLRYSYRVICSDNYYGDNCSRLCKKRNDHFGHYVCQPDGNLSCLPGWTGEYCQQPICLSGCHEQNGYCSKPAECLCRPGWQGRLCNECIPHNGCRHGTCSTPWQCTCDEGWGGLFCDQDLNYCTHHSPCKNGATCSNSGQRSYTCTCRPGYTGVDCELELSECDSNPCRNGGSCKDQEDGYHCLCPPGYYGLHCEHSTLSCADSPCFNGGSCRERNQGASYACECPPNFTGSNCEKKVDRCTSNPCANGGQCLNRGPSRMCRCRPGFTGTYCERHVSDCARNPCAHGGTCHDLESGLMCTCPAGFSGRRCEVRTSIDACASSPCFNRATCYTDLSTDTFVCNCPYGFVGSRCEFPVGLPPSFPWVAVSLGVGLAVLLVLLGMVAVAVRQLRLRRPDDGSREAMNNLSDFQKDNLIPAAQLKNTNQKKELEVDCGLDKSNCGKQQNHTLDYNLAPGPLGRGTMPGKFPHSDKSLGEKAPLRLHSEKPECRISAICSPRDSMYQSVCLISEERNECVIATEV
How it was run: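 HEK293 cells overexpressing DLL4 (transient or stable) were incubated with VHH titrations for 30 min on ice. After washing, binding was detected with anti-c-myc-Alexa647 by flow cytometry, and the mean MCF was used to calculate EC50.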

[7] = molecular target: T1, recombinant human DLL4; test: competition ELISA, biot-hDLL4 to coated hNotch1-Fc
Source text: Residual binding of biotinylated human DII4 is detected using horseradish peroxidase (HRP) conjugated extravidin (Sigma, St. Louis, Mo., USA) (FIG. 3 A-C). Human DII4 is biotinylated as described above.

[8] = molecular target: T4, recombinant human DLL4 (C-terminally His-tagged extracellular domain, R&D Systems) (human, UniProt Q9NR61 25-522, biotinylated in the competition ELISA); test: binding ELISA on recombinant human DLL4, OD 450 nm
T4 construct: also called rhDLL4; hDLL4

[9] = molecular target: T5, human Jagged-1 (Alexis) (human, UniProt P78504 34-1067, limits assumed); test: binding ELISA on coated human Jagged-1 (Example 5.8, Example 7), OD 405 nm
T5 construct: also called hJag-1; hJAG1

[10] = molecular target: T6, recombinant mouse DLL4 (C-terminally His-tagged extracellular domain, R&D Systems) (mouse, UniProt Q9JI71 27-532); test: binding ELISA on coated recombinant mouse DLL4 (Example 5.8, Example 7), OD 450 nm
T6 construct: extracellular domain; also called rmDLL4; mDLL4

[11] = molecular target: T7, human DLL1 (Alexis) (human, UniProt O00548 18-545, limits assumed); test: binding ELISA on coated human DLL1 (Example 5.8, Example 7), OD 450 nm
T7 construct: also called hDLL1
T7 sequence (looked up): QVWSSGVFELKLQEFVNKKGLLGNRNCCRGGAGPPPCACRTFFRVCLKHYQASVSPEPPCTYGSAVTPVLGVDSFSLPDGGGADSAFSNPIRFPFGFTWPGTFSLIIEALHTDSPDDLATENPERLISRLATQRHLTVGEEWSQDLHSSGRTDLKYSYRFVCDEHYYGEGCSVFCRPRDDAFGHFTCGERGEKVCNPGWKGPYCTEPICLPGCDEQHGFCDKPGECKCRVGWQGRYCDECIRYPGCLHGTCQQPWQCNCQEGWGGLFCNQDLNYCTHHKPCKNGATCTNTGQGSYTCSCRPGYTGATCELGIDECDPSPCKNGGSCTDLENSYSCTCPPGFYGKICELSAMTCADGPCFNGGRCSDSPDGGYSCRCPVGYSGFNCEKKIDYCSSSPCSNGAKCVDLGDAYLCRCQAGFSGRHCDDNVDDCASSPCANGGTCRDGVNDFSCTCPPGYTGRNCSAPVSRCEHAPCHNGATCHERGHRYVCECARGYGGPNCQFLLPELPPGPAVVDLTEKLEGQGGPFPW

[12] = molecular target: T5, human Jagged-1 (Alexis); test: binding ELISA on coated human Jagged-1 (Example 5.8, Example 7), OD 405 nm; remark: listed apart in the source
[13] = molecular target: T4, recombinant human DLL4 (C-terminally …); test: binding ELISA on coated recombinant human DLL4 (Example 5.8, Example 7), OD 450 nm

T6 sequence (Q9JI71 27-532): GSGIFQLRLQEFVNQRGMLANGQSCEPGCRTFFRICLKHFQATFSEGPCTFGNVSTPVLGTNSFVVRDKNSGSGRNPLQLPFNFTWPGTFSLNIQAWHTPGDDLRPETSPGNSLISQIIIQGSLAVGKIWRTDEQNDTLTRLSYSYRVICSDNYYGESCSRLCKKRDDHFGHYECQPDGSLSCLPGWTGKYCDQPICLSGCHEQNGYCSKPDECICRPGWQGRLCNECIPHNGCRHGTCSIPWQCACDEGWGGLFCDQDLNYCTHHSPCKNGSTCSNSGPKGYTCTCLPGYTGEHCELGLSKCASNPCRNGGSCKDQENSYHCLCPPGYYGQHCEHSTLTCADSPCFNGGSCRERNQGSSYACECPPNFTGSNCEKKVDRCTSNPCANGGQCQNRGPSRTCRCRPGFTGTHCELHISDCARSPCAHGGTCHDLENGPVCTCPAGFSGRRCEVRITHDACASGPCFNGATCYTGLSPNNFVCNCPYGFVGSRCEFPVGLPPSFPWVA
T2 sequence (Q9JI71 27-532): as above

- EC50 (read off the curve) [8]: ~700 pM
- EC50 (read off the curve) [10]: ~800 pM
B3: DLLBII129E11 (VHH, not shown: small tags and cut ends)
VHH: EVQLVESGGGLVQAGGSLRLSCAASGRTFSSYAMAWYRQAPGKEREYVAAIRWSGGTAYYADSVQGRFTISRDNAKNTVYLQMNSLKPEDTAVYYCANRAPDTRLRPYLYDYWGQGTQVTVSS
- binding result [9]: no binding (tested: log[M] -6.1 (about 8e-7 M))

- EC50 (read off the curve) [8]: ~700 pM
- EC50 (read off the curve) [10]: ~800 pM
B4: DLLBII129D08 (VHH, not shown: small tags and cut ends)
VHH: EVQLVESGGGLVQAGGSLRLSCAASGRTFSSYAMAWYRQAPGKEREYVAAIRWSGGTAYYADSVQGRFTISRDNAKNTVYLQMNSLKPEDTAVYYCANRAPDTRLEPYLYDYWGQGTQVTVSS
- binding result [9]: no binding (tested: log[M] -6.1 (about 8e-7 M))

- EC50 (read off the curve) [13]: ~600 pM
B8: DLLBII133A09 (VHH, not shown: small tags and cut ends)
VHH: EVQLVESGGGLVQPGGSLRLSCAASGFTFGSYDMSWVRRSPGKGPEWVSAINSGGGSTYYADYVKGRFTISRDNAKNTLYLQMNSLKPEDTAVYYCAADRYIWARQGEYWGAYAYDYWGQGTQVTVSS
- binding result [11]: no binding (tested: log[M] -6.1 (about 8e-7 M))
- binding result [12]: no binding (tested: log[M] -6.1 (about 8e-7 M))

- EC50 (read off the curve) [13]: ~400 pM
B9: DLLBII133G05 (VHH, not shown: small tags and cut ends)
VHH: EVQLVESGGGLVQPGGSLRLSCAASGFTFGSYDMSWVRRSPGKGPEWVSAINSGGGSTYYTDYVKGRFTISRDNAKNTLYLQMNSLKPEDTAVYYCAADRYIWARQGEYWGAYAYDYWGQGTQVTVSS
- binding result [11]: no binding (tested: log[M] -6.1 (about 8e-7 M))
- binding result [12]: no binding (tested: log[M] -6.1 (about 8e-7 M))

- EC50 (read off the curve) [13]: ~600 pM
B10: DLLBII015 (VHH, not shown: small tags and cut ends)
VHH: EVQLVESGGGLVQPGGSLRLSCAASGFTIGSYDMSWVRRSPGKGPEWVSAINSGGGSTYYADYVKGRFTISRDNAKNTLYLQMNSLKPEDTAVYYCAADRYIWARQGEYWGAYAYDYWGQGTQVTVSS
- binding result [11]: no binding (tested: log[M] -6.1 (about 8e-7 M))
- binding result [12]: no binding (tested: log[M] -6.1 (about 8e-7 M))

- EC50 (read off the curve) [13]: ~600 pM
B11: DLLBII136C07 (VHH, not shown: small tags and cut ends)
VHH: EVQLVESGGGLVQPGGSLRLSCAASGFTFGSYDMSWVRRSPGKGPEWVSSINSGGGSTYYADYVKGRFTISRDNAKNTLYLQMNSLKPEDTAVYYCAADRYIWARQGEYWGAYEYDYWGQGTQVTVSS
- binding result [11]: no binding (tested: log[M] -6.1 (about 8e-7 M))
- binding result [12]: no binding (tested: log[M] -6.1 (about 8e-7 M))

The remaining lines, values behind:

B1: DLLBII101G08 (VHH)
VHH: EVQLVESGGGLVQAGGSLRLSCAASGRTFSSYAMAWFRQAPGKEREFVAAIRWSGGTAYYADSVQGRFTISRDNAKNTVYLQMNSLKPEDTAVYYCANRAADTRLGPYEYDYWGQGTQVTVSS
notes: also called 101G8; DLLBII101G8
- IC50, DLL4/Notch1 reporter assay [1]: 2760 nM
- IC50 (nM) (experiment 1), DLL4 proliferation assay (HUVEC) [2]: 401 nM
- IC50 (nM) (experiment 2), DLL4 proliferation assay (HUVEC) [2]: 112 nM
- EC50 [3]: 8.9 nM
- EC50 [4]: 53.9 nM
- koff [5]: 0.0021 s⁻¹
- EC50 (read off the curve) [6]: ~9 nM
- IC50 [7]: 9.5 nM

B2: DLLBII101G08 (VHH, not shown: small tags and cut ends)
VHH: EVQLVESGGGLVQAGGSLRLSCAASGRTFSSYAMAWFRQAPGKEREFVAAIRWSGGTAYYADSVQGRFTISRDNAKNTVYLQMNSLKPEDTAVYYCANRAADTRLGPYEYDYWGQGTQVTVSS
notes: parent VHH; also called 101G08 (wt); 101G8
- EC50 (read off the curve) [8]: ~4000 pM
- binding result [9]: no binding (tested: log[M] -6.1 (about 8e-7 M))

B5: DLLBII129B05 (VHH, not shown: small tags and cut ends)
VHH: EVQLVESGGGLVQAGGSLRLSCAASGRTFSSYAMAWYRQAPGKEREYVAAIRWSGGTAYYADSVQGRFTISRDNAKNTVYLQMNSLKPEDTAVYYCANRAPDTRLAPYEYDHWGQGTQVTVSS
- EC50 (read off the curve) [8]: ~700 pM
- binding result [9]: no binding (tested: log[M] -6.1 (about 8e-7 M))
- EC50 (read off the curve) [10]: ~800 pM

B6: DLLBII56A09 (VHH)
VHH: EVQLVESGGGLVQPGGSLRLSCAASGFTFDDYAIGWFRQAPGKEPEGISCISSSGGITYYADSVKGRFTTSRDNAKNTVYLQMNSLKPEDTAVYYCATPGIAACRGIHYTGQGTQVTVSS
notes: also called 56A9; DLLBII56A9
- IC50, DLL4/Notch1 reporter assay [1]: 540 nM
- IC50 (nM) (experiment 1), DLL4 proliferation assay (HUVEC) [2]: 11 nM
- IC50 (nM) (experiment 2), DLL4 proliferation assay (HUVEC) [2]: 6.8 nM
- EC50 [3]: 3.6 nM
- EC50 [4]: 6.3 nM
- koff [5]: 0.0011 s⁻¹
- EC50 (read off the curve) [6]: ~3 nM
- IC50 [7]: 4.9 nM

B7: DLLBII115A05 (VHH)
VHH: EVQLVESGGGLVQPGGSLRLSCAASGFTFGSYDMSWVRRSPGKGPEWVSSINSGGGSTYYADFVKGRFTISRDNAKNTLYLQMNSLKPEDTAVYYCAADRYIRARQGDYWGAYEYDYWGQGTQVTVSS
notes: also called 115A5; DLLBII115A5
- IC50, DLL4/Notch1 reporter assay [1]: 1740 nM
- IC50 (nM) (experiment 1), DLL4 proliferation assay (HUVEC) [2]: 10000 nM
- EC50 [3]: 5 nM
- EC50 [4]: 33.4 nM
- koff [5]: 0.0031 s⁻¹
- EC50 (read off the curve) [6]: ~4 nM
- IC50 [7]: 9.1 nM
